This passage reports IC50 results from patent US10426824 (Dana-Farber, dated 2019).

The test addresses HLA-A3 (human). The experiment in a line: competitive MHC binding assay against a reference peptide.

B1: E255K-B255-263 mutant BCR-ABL peptide (KVYEGVWKK) (peptide)
peptide: KVYEGVWKK
notes: Synthetic 9-mer; also called E255K-B (MUT) peptide; BCR-ABL peptide harboring the E255K mutation
The molecule B1 came in with an IC50 of 17 nM.
